Measured values published in publication doi:10.1101/2025.07.25.666786.

What was measured:
[1] = target: CrAPE1 C128S mutant, recombinant soluble region of the DUF2854 of APE1 from Chlamydomonas reinhardtii (Chlamydomonas reinhardtii); test: SEC-MALS
[2] = target: CrAPE1 C128S mutant, recombinant soluble region of the DUF2854 of APE1 from Chlamydomonas reinhardtii (Chlamydomonas reinhardtii); test: MST
[3] = target: Plastid Copper Chaperone 1 (PCC1) from Chlamydomonas reinhardtii, recombinant, produced in the presence of Cu (Chlamydomonas reinhardtii)

Substance | stoichiometry N [1] | Kd [2] | stoichiometry N [3]
CrAPE1 C128S mutant, recombinant soluble region of the DUF2854 of APE1 from Chlamydomonas reinhardtii (domain or fragment) | 2 | – | –
Plastid Copper Chaperone 1 (PCC1) from Chlamydomonas reinhardtii, recombinant, produced in the presence of Cu (natural protein) | – | 38.6 nM | 2
